The RNAGym collection of RNA variant scans (doi:10.1073/pnas.2313332121)

B1: TPR t1 (parent)
chain: GACCAAUCUGCCCUCAGAGCUCGAGAACAUCUUCGGAUGCAGAGGAGGCAGGCUUCGGUGGCGCGAUAGCGCCAACGUCCUCAACCUCCAAUGCAUCCCACCACAUGAUGAUGCCUGAAGAGCCUUGGUUUUUUG

Variants of: B1
Test: polymerase ribozyme fitness, log enrichment relative to wild type (log ratio); higher = more active; in vitro selection for triplet polymerase activity
Outline: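 Both subunits of a heterodimeric triplet polymerase ribozyme were given their own mutant library, built by PCR and transcribed. Each library was annealed with a biotinylated primer, the partner subunit and triplets, incubated frozen at −7 °C, and its extended constructs gel-excised, captured on streptavidin beads and amplified by RT-PCR, all in one round done in triplicate. Fitness is the logarithm of genotype enrichment relative to wild-type enrichment, with replicates averaged by inverse-variance weighting. That logarithm is base 2, and Illumina-sequenced genotypes needed ≥10 input reads and ≥1 read per output.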

Which “polymerase ribozyme fitness (log ratio)” value does the source give for GACAAAUCUGCCCUCAGAGCUCGAGAACAUCUUCGGAUGCAGAGGAGGCAGGCUUCGGUGGCGCGAUAGCGUCAACGUCCUCAACCUCCAAUGCAUCCCACCACAUGAUAAUGCCUGAAGAGCCUUGGGUUUUUG [C4A C72U G110A U129G] here?
Its value is -5.59.

For GACCAAUCUGCCCUCAGAGCUCGAGAACAUUUUCGGAUGCAGAGGAGGUAGGCUUCGGUGGCGCGAUAGCGCCAAGGUCCGCAACCUCCAAUGCAACCCACCAUAUGUUGAUGCCUGAAGAGCGUUGGUCUUUUG [C31U C49U C76G U81G U96A C104U A108U C124G U130C], which “polymerase ribozyme fitness (log ratio)” value is on record?
Its value is -5.23.

With GACCAAUCUGCCCUCAGAGUUCGAGAACAUCUUCGGAUGCAGAGGAGGCAGGCUUCGGUGGCCCGAUAGCGCCAACGUCCUCAACCUCCAAUGCAUCCCACCACAUGAUGAUGCCUGAAGAGCCUUGGUUUUUUG [C20U G63C] as the variant, how does the “polymerase ribozyme fitness (log ratio)” value read?
Its value is -2.1.

With GACCAAUCUGCCCUCAGAGCUCGAGAACAUCUUCGGAUGCAGAGGAGGCAGGCUUCGGUGGCGCGAUAGCGCCAACGUCCUCAACCUCCAUUGCAUCCCACCAUAUGAUGAUGCCUGAAGAGCCUUGGUUUUUUG [A91U C104U] as the variant, how does the “polymerase ribozyme fitness (log ratio)” value read?
Its value is -1.47.

Which “polymerase ribozyme fitness (log ratio)” value does the source give for GACCAAUCUGCCCUCAGAGCUCGAGAACAUCUUCGGAUGCAGAGGAGGCAGGCUUCGGUGGCGCGAUAGAGCCAACGUCCUCAACCUCCAAUGCAUCCCACCACAUGAUGAUGUCUGAAGAGCCUUGGUUUUUUG [C70A C114U] here?
The value was -3.91.

Which “polymerase ribozyme fitness (log ratio)” value does the source give for GACCAAUCUGCCCUCAGAGCUCGAGAACAUCUUCGGAUGCAGAGGAGGCAGGCUUCGGUGGCGCGAUAGCGCCAACGUCCUCAACCUCCAUUGCAUCCCACCACAUGAUGGUGCCUGAAGAGCCUUGGUUUUUUG [A91U A111G] here?
The value was -1.26.

Which “polymerase ribozyme fitness (log ratio)” value does the source give for GACCAAUCUGCACUCAGAGCUCGAGAACAUCUUCGGAUGCAGAGGCGGCAGGCUUCGGAGGCGCGAUAGCGCCAACGUCCUCAACCUCCAAUGCAUCCCACCACAUGAUGAUGCCUGAAGAGCCUUGGUUUUUUG [C12A A46C U59A] here?
The value was -0.649.

With GACCAAUCUGCCCUCAGAGCUCGAGAACAUCUUCGGAUGCAGAGGAGGCAGGCUUCGGUGGCGCGAUAGUGCCAACGUCCUCAACCUCCAAUGUAUCCCACCACAUGAUGAAGCCUGAAGAGCCUUGGUUUUUUG [C70U C94U U112A] as the variant, how does the “polymerase ribozyme fitness (log ratio)” value read?
Its value is 0.254.

Which “polymerase ribozyme fitness (log ratio)” value does the source give for GACCAAUCUGCCCUCAGAGCUCGAGAACAUCUUCGGAUGCAGAGGAGGCAGGCUUCGGUGGCGCGAUAGCGCCAACGUCCUCAACCUCCAAUGCAUCCCACCACAUGAUGAUGCCUGAAGAGCCUUGAUUUUAUG [G128A U133A] here?
Its value is -3.85.

With GACCAAUCUGCCCUCAGAGCUCGAGAACAUCUUCGGAUGCAGAGGAGGCAGGCUUCGGUGGCGCGAUAGGGCCAACGUCCUCAACCUCCAAUGCAUCCCACCACAUGAGGAUGCCUGAAGAGCCUUGGUUUUUUG [C70G U109G] as the variant, how does the “polymerase ribozyme fitness (log ratio)” value read?
The value was -6.4.

For GACCAAUCUGACUUCAGAGCUCGAGAACAUCUUCGGAUGCAGAGGAGGCAGGAUUCGGUGGCGCGAUAGCGCCAACGUCCUCAACCUCCAAUGCAUCCCACCACAUGAUGAUGCCUGAAGAGCCUUGGUUUUUUG [C11A C13U C53A], which “polymerase ribozyme fitness (log ratio)” value is on record?
Its value is -1.65.

Which “polymerase ribozyme fitness (log ratio)” value does the source give for GACCAAUCUGGCCUCACAGCUCGAGAACAUCUUCGGAUGCAGAGGAGGCAGGCUGCGGUGGCGCGAUAGCGCUAACGUCCUCAACCUCCAAUGCAUCCCACCACAUGAUGAUGCCUGAAGAGCCUUGGUUUUUUG [C11G G17C U55G C73U] here?
The value was -3.54.

For GACCAAUCUGCCCUUAGAGCUCGAGAACAUCUUCGGAUGCAGAGGAGGCAGGCUUCGGUGGCGCGAUAGCGCCAACAUCCUCAACCGCCAAUGCAUCCCACCACAUGAUGAUGCCUGAAGAGCCAUGGUUUUUUG [C15U G77A U87G U125A], which “polymerase ribozyme fitness (log ratio)” value is on record?
Its value is -2.39.

With GACCAAUCUGCCCUCAGAGCUCGAGAACAUCUUCGGAUGCAGAGGAGGCCGGCUUGGGUGGCGCGAUAGCGCCAACGUCCUCAACCUCCAAUGCAUCCCACCACUUGAUGAUGCCUGAACAGCCUUGGUUUUUUG [A50C C56G A105U G120C] as the variant, how does the “polymerase ribozyme fitness (log ratio)” value read?
Its value is -2.11.

Which “polymerase ribozyme fitness (log ratio)” value does the source give for GACCCAUCUGCCCUAAGAGCUCGAGAACAUCUUCGGAUGCAGAGGAGGCAGGCUUCGGUGGCGCGAUAGCGCCAACGUCCUCAACCUCCAAUGCAUCCCACCACAUGAUGAUGCCUGAAGAGCCUUGGUUUUUUG [A5C C15A] here?
Its value is -1.17.

For GACGAAUCUGCCCUCAGAGCUCGAGAACAUCUUCGGAUGCAGAGGAGGCAGGCUUCGGUGGCGCGAUAGCGCCAACGUCCUCAACCUCCAAUGCAUCCCACCACAUGAUGAUGCUUGAAGAGCCUUGGUUUUUUG [C4G C115U], which “polymerase ribozyme fitness (log ratio)” value is on record?
The value was -2.19.

With GACCAAUCUGCCCUCAGAGCGCGAGAACAUCUUCGGAUGCAGAGGAGGCAUGCUUCGGUGGCGCGAUACCGCCAACGUCCUCAACCUCCAAUGCAUCCCACCUCAUGAUGUUGCCUGAAGAUCCUUGGUUUUUUG [U21G G51U G69C A103U A111U G122U] as the variant, how does the “polymerase ribozyme fitness (log ratio)” value read?
Its value is -7.01.

With GACCGAUCUGCCCUCAGAGCUCGAGAACAUCUUCGGAUGCAGAGGAGGCAGGCUUCGGUGGCACGAUAGCGCCAACGUCCUCAACCUCCAAUGCAUCCCACCACAUGAUGAUGCCUGAAGAGCCUUGGUUUUUUG [A5G G63A] as the variant, how does the “polymerase ribozyme fitness (log ratio)” value read?
Its value is -1.41.

For GACCAAUCUGCCCUCAGAGCUCGAGAACAUCUUCGGAUGUAGAGGAGGCAGGCUUCGGUGGCGCGAUACCGCCAACGUCCUCAACCUCCAAUACAGCCCACCACAUGAUGAUGCCUGAAGAGCCUUGGUUUUUUG [C40U G69C G93A U96G], which “polymerase ribozyme fitness (log ratio)” value is on record?
Its value is -2.24.

With GACCAAUCUGCCCUCAGAGCUCGAGAACAUCUUCGGAUGCAGAGGAGGCAGGCUUCGGUGGCGCGAUAGCGCCAACGUCCUCAACCUCCAAUGCAUCCCACCACAUGAAGAUGCCUGAAGAGCCUUGGUUUUAUG [U109A U133A] as the variant, how does the “polymerase ribozyme fitness (log ratio)” value read?
The value was -5.88.

Which “polymerase ribozyme fitness (log ratio)” value does the source give for GACCAAUCUGCCCUCAGAGCUCGAGAACAUCUUCGGAUGCAGAGGAGGCAGGCUUCGGUGGCGCGAUAGCGCCAACGUCCUCAACCUGCAAUGCAGCCCACCACAUGAUGAUGCCUGAAGAGCCUUGGUUUUUUG [C88G U96G] here?
Its value is -0.738.
